According to the Human Domainome abundance scans (Beltran et al. 2025):

B1: POU domain, class 3, transcription factor 2, residues 262 to 338; numbered along this chain, P20265 (parent)
chain: EDTPTSDDLEQFAKQFKQRRIKLGFTQADVGLALGTLYGNVFSQTTICRFEALQLSFKNMCKLKPLLNKWLEEADSS

Variants of: B1
Assay: abundance fitness (aPCA) (normalised: wild type 0, dead -1); higher = more abundant; growth selection in yeast, the domain comes from the species named
Settings: Homo sapiens

Abundance fitness, by site and new letter:
L55: D -0.369 | I -0.364 | P -0.586 | E -0.298 | C -0.318 | H -0.266 | F -0.277 | K -0.409 | G -0.61 | N -0.633 | A -0.567
R49: H -0.314 | E 0.026 | C -0.691 | V -0.868 | D 0.006 | G -0.242 | M -0.125 | K 0.05 | S -0.175 | F -0.694 | Q 0.045 | Y -0.499
T45: E 0.143 | N -0.08 | I -0.213 | R -0.005 | Q 0.005 | K 0.053 | H -0.066 | S -0.013 | F -0.104 | Y -0.338 | L -0.127 | P -0.261 | G -0.097
E51: V -0.965 | A -0.855 | N -0.886 | Q -0.803 | M -1 | Y -0.999 | L -1.05 | S -0.88 | K -0.666 | P -0.795 | I -0.503 | G -0.818 | R -0.638 | D -0.638
T46: A -0.186 | L -0.103 | N -0.393 | W -0.307 | R -0.376 | M -0.185 | K -0.416 | V -0.115 | F -0.325 | C -0.317 | H -0.208 | D 0.064 | I -0.1 | E -0.035 | Q -0.058 | P -0.697 | G -0.643 | Y -0.547
Q54: R -0.156 | W -0.436 | E -0.03 | G -0.23 | K 0.045 | Y -0.726 | M -0.294 | N -0.113 | D -0.035 | H -0.2 | V -0.535 | L -0.316 | F -0.933 | S -0.157 | T -0.068
C48: V -0.099 | T -0.064 | S 0.029 | N -0.071 | Q 0.134 | L -0.152 | K 0.066 | H -0.029 | G 0.022 | P -0.115 | D 0.052 | I -0.134 | M 0.059 | E 0.085 | W -0.108 | F -0.2 | R 0.004 | A 0.086
A52: C -0.137 | I -0.632 | V -0.615 | S 0.015 | T -0.02 | W -0.552 | G -0.078 | K -0.07 | N 0.008 | Y -0.534 | E 0.048 | L -0.111 | M -0.091 | F -0.844 | D 0.003 | R -0.181 | Q 0.056 | H -0.213
I47: K -0.701 | M -0.58 | H -0.65 | F -0.787 | N -0.798 | A -0.751 | S -0.782 | Y -0.339 | L -0.267 | D -0.786 | G -1 | Q -0.723 | V -0.121 | P -1.02 | R -0.689 | T -0.636 | E -0.772 | C -0.763
F50: T -0.682 | A -0.763 | K -0.711 | Y -0.412 | G -0.839 | M -0.485 | E -0.85 | W -0.749 | Q -0.624 | V -0.682 | L -0.487 | P -0.756 | S -0.821 | I -0.675 | R -0.886
L53: D -0.411 | T -0.138 | C 0.044 | Q -0.034 | K -0.06 | E -0.311 | A 0.016 | S -0.007 | H -0.017 | Y 0.018 | M 0.017 | N -0.022 | V -0.009 | P -0.961 | F -0.09
